In EP4596582A1 (Sichuan Kelun-Biotech Biopharmaceutical Co., Ltd., dated 2025) one finds EC50 data, which are given here for two molecules.

Read-outs that look alike come from different tables or passages of the source.

Assay [1] deals with T1, monkey B7-H3-4Ig-His protein (monkey).
T1 chain: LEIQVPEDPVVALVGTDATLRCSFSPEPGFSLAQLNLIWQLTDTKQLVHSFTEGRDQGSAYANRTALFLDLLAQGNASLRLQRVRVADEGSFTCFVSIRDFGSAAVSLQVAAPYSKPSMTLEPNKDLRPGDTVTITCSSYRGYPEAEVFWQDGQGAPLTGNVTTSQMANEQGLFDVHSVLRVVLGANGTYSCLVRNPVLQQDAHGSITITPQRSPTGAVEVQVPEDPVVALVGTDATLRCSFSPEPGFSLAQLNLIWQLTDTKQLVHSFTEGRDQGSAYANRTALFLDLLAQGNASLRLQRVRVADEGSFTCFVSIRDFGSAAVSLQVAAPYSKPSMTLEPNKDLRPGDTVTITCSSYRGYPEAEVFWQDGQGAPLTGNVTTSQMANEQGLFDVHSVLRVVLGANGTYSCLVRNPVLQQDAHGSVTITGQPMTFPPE
The experiment in a line: ELISA, antigen coated at 1 ug/ml.

Assay [2] concerns the target T2, human B7-H3-4Ig-His protein (human, UniProt Q5ZPR3 29-466).
T2 construct: extracellular domain; Made in HEK293-EBNA cells
T2 sequence: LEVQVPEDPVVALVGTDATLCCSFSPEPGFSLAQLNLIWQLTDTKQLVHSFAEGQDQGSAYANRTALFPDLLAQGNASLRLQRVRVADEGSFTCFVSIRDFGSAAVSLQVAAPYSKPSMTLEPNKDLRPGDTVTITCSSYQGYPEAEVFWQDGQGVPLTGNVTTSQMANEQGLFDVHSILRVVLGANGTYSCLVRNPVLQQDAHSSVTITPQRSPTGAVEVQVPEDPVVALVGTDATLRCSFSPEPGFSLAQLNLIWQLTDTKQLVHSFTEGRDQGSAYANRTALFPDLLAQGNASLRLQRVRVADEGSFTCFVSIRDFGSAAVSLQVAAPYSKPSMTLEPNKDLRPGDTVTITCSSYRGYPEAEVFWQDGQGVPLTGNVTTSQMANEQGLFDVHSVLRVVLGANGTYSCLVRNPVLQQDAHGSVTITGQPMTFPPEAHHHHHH
The experiment in a line: ELISA, antigen coated at 1 ug/ml.

Assay [3] concerns the target T3, human B7-H3 on human tumor cells (MCF-7, HT29, NCI-N87, HCC1806, HCC827) (human, UniProt Q5ZPR3 29-534).
T3 construct: whole, on cells
T3 sequence (looked up): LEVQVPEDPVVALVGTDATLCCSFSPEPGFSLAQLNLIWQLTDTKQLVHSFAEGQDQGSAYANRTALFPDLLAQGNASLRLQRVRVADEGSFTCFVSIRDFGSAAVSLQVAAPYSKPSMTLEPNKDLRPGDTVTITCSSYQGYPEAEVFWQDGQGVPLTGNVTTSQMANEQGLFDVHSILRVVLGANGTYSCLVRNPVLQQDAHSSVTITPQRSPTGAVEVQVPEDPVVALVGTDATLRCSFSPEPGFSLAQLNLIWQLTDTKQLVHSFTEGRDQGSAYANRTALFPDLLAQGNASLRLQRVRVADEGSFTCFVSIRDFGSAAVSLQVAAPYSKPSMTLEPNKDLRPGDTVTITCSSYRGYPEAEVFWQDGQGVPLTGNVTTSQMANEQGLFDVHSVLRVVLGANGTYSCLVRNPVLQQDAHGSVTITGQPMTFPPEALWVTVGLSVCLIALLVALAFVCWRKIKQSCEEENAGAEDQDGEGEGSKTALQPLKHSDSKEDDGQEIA
The experiment in a line: flow cytometry on MCF-7 cells.

Assay [4] has as its target T1, monkey B7-H3-4Ig-His protein. The experiment in a line: ELISA, antigen coated at 1 ug/ml.
Assay [5] deals with T2, human B7-H3-4Ig-His protein. Briefly: ELISA, antigen coated at 1 ug/ml. The source holds these as a separate data set.

B1: anti-human-B7-H3 chimeric antibody 20G11G6 (antibody, V domains shown)
VH: QVQLQESGPGLVKPSGTLSLTCAVSGGSNSSSNWWTWVRQSPGKGLEWIGEISPTGFTSYSPSLKSRVTISVDKSKTQFSLNLSSVTAADTAVYYCARDRLYFDFWGQGTLVTVSS
VL: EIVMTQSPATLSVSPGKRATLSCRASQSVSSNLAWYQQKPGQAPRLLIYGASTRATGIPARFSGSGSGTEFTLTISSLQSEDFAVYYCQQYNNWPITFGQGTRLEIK
notes: Purified from hybridoma of H2L2 transgenic mice: human variable regions with constant regions of rat origin
For the molecule B1, the EC50 is 0.0213 µg/mL in assay [1], 0.0165 µg/mL in assay [2] and 0.228 µg/mL in assay [3].

B2: anti-human-B7-H3 human antibody 2# (antibody, human IgG1, kappa, V domains shown)
VH: QVQLQESGPGLVKPSGTLSLTCAVSGGSNSSSNWWTWVRQSPGKGLEWIGEISPTGFTSYSPSLKSRVTISVDKSKTQFSLNLSSVTAADTAVYYCARDRLYFDFWGQGTLVTVSS
VL: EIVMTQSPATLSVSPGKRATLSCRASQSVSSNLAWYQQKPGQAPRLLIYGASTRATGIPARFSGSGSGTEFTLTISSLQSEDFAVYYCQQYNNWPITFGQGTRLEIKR
notes: also called 20G11G6/2#
On to B2, for which the figures for the EC50 in assay [4] and in assay [5] were 0.00394 µg/mL and 0.00297 µg/mL, respectively.
